Square brackets hold non-standard residues; d marks the D form. Ends that are not written are not given here. Tyr(3-NO2) = N[C@@H](Cc1ccc(O)c([N+](=O)[O-])c1)C(=O)O; 2Abz = Nc1ccccc1C(=O)O
How the values were obtained:
Assay type in all cases: biochemical
Kallikrein-3 = Kallikrein-3 (Homo sapiens, UniProt P07288); assay: FRET peptide cleavage efficiency with Kallikrein-3; settings: peptide 200 uM, Kallikrein-3 2 μg/ml, 37° C., pH 8
uPA = uPA (Homo sapiens, UniProt P00749); assay: FRET peptide cleavage efficiency with uPA; settings: 200 uM linker, 1 ug/ml protease, 37° C., buffer A pH 8.5
matriptase = target: T1, matriptase (Homo sapiens, UniProt Q9Y5Y6); assay: FRET peptide cleavage efficiency with matriptase; settings: 200 uM linker, 1 ug/ml protease, 37° C., buffer B pH 9.0
T1 construct: purchased R&D Systems 3946-SEB
T1 sequence (Q9Y5Y6 615-855 limits assumed): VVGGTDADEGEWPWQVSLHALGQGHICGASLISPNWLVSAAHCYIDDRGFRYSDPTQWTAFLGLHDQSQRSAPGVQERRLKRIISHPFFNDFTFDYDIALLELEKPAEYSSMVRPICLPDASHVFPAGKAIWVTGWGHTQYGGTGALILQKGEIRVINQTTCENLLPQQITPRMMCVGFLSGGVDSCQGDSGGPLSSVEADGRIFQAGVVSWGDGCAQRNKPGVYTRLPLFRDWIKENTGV

MMP-2 = target: T2, MMP-2 (Homo sapiens, UniProt P08253); assay: FRET peptide cleavage efficiency with MMP-2
T2 construct: purchased SIGMA PF023
T2 sequence (P08253 110-660): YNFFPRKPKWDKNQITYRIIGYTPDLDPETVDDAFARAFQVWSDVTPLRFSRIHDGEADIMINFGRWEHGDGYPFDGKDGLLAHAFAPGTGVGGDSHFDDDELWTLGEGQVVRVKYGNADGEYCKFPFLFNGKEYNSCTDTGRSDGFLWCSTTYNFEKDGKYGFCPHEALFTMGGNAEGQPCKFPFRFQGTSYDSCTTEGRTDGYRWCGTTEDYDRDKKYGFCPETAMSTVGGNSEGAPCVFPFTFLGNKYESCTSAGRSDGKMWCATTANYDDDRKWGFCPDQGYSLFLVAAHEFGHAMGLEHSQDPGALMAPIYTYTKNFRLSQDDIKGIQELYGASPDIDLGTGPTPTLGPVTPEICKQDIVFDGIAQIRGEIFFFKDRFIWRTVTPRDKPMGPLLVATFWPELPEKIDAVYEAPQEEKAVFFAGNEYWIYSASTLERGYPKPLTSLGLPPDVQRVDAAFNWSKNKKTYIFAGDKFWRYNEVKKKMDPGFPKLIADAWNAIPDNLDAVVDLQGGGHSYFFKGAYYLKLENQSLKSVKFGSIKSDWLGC

MMP-7 = target: T3, MMP-7 (Homo sapiens, UniProt P09237); assay: FRET peptide cleavage efficiency with MMP-7 (standard pH 7.5; also pH 6.5); settings: for % cleavage MMP-7 t = 15 min: t = 15 min (Table 9); for % cleavage MMP-7 t = 60 min: t = 60 min (Table 9); for % cleavage MMP-7 t = 120 min: t = 120 min (Table 9)
T3 construct: purchased SIGMA CC1059
T3 sequence (P09237 95-267): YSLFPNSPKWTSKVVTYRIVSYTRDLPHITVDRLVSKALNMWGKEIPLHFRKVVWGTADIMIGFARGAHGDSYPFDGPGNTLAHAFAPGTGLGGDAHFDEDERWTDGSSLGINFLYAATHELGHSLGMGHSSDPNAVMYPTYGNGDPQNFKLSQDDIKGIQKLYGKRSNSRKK

MMP-9 = target: T4, MMP-9 (Homo sapiens, UniProt P14780); assay: FRET peptide cleavage efficiency with MMP-9 (standard pH 7.5; also pH 6.5); settings: for % cleavage MMP-9 t = 15 min: t = 15 min (Table 9); for % cleavage MMP-9 t = 60 min: t = 60 min (Table 9); for % cleavage MMP-9 t = 120 min: t = 120 min (Table 9)
T4 construct: purchased SIGMA PF024
T4 sequence (P14780 94-707): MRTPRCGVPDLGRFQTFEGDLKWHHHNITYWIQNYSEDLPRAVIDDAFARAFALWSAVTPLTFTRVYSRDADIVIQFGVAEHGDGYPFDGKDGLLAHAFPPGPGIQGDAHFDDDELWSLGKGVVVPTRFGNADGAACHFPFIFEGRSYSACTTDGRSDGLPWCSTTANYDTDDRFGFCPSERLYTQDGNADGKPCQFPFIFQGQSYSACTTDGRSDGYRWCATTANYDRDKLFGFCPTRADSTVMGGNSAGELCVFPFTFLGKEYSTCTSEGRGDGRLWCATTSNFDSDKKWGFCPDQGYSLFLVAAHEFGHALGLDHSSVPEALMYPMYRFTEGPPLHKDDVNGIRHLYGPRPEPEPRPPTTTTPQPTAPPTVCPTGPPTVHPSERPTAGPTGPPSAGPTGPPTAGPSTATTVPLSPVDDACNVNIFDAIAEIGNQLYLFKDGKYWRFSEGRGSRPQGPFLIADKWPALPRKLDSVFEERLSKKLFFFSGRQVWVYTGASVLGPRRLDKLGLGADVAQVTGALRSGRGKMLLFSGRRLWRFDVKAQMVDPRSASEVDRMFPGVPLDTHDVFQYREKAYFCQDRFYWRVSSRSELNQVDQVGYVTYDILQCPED

[1] = t = 15 min, 200 uM linker, 1 ug/ml protease, 37° C., buffer C pH 7.5
[2] = t = 60 min, 200 uM linker, 1 ug/ml protease, 37° C., buffer C pH 7.5
[3] = t = 120 min, 200 uM linker, 1 ug/ml protease, 37° C., buffer C pH 7.5

Chain of Kallikrein-3 (P07288 25-261, species assumed): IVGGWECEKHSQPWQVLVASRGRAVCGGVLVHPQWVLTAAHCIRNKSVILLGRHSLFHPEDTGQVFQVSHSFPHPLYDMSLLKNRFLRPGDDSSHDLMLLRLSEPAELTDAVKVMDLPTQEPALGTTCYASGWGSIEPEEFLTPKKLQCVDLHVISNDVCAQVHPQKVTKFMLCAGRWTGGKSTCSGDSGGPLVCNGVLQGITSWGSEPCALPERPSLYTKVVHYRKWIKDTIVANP

Row | Substance | Kallikrein-3 t = 1 h % cleavage (Kallikrein-3) [%] | Kallikrein-3 t = 3 h % cleavage (Kallikrein-3) [%] | Kallikrein-3 t = 6 h % cleavage (Kallikrein-3) [%] | Kallikrein-3 t = 8 h % cleavage (Kallikrein-3) [%] | % cleavage uPA t = 15 min (uPA) [%] | % cleavage uPA t = 60 min (uPA) [%] | % cleavage uPA t = 120 min (uPA) [%] | % cleavage Matriptase t = 15 min (matriptase) [%] | % cleavage Matriptase t = 60 min (matriptase) [%] | % cleavage Matriptase t = 120 min (matriptase) [%] | % cleavage MMP-2 t = 15 min (MMP-2; t = 15 min (Table 9)) [%] | % cleavage MMP-2 t = 15 min (MMP-2; [1]) [%] | % cleavage MMP-2 t = 60 min (MMP-2; t = 60 min (Table 9)) [%] | % cleavage MMP-2 t = 60 min (MMP-2; [2]) [%] | % cleavage MMP-2 t = 120 min (MMP-2; t = 120 min (Table 9)) [%] | % cleavage MMP-2 t = 120 min (MMP-2; [3]) [%] | % cleavage MMP-7 t = 15 min (MMP-7) [%] | % cleavage MMP-7 t = 60 min (MMP-7) [%] | % cleavage MMP-7 t = 120 min (MMP-7) [%] | % cleavage MMP-9 t = 15 min (MMP-9) [%] | also measured
1 | GSGSGSGS ([2Abz]GSGSGSGS[Tyr(3-NO2)]-NH2) [LNK064] | 0 | 0 | 0 | 0 | 0 | 0 | 0 | 0 | 0 | 0 | 0 | 0 | 0 | 0 | 0 | 0 | 0 | 0 | 0 | 0 | % cleavage MMP-9 t = 60 min (MMP-9): 0%; % cleavage MMP-9 t = 120 min (MMP-9): 0%
2 | RGRRHSSKLQ ([2Abz]RGRRHSSKLQ[Tyr(3-NO2)]-NH2) [LNK052] | 8 | 31 | 55 | 67 | 0 | 0 | 0 | 60 | 100 | 100 | 1 | 1 | 2 | 2 | 4 | 4 | 0 | 0 | 0 | 0 | % cleavage MMP-9 t = 60 min (MMP-9): 0%; % cleavage MMP-9 t = 120 min (MMP-9): 0%
3 | SGRHSSKLQPLGYFGKL ([2Abz]SGRHSSKLQPLGYFGKL[Tyr(3-NO2)]-NH2) [LNK063] | 7 | 20 | 37 | 45 | 0 | 0 | 0 | 9 | 35 | 62 | 82 | 82 | 100 | 100 | 100 | 100 | 2 | 3 | 0 | 23 | % cleavage MMP-9 t = 60 min (MMP-9): 93%; % cleavage MMP-9 t = 120 min (MMP-9): 100%
4 | RGRRHSSKLQPLGYFGKL ([2Abz]RGRRHSSKLQPLGYFGKL[Tyr(3-NO2)]-NH2) [LNK062] | 28 | 79 | 100 | 100 | 0 | 0 | 0 | 66 | 100 | 100 | 71 | 71 | 100 | 100 | 100 | 100 | 0 | 0 | 0 | 41 | % cleavage MMP-9 t = 60 min (MMP-9): 100%; % cleavage MMP-9 t = 120 min (MMP-9): 100%
5 | RSSYRSL ([2Abz]RSSYRSL[Tyr(3-NO2)]-NH2) [LNK075] | 49 | 83 | 94 | 100 | 2 | 9 | 19 | 8 | 33 | 56 | 16 | 16 | 60 | 60 | 86 | 86 | 0 | 0 | 0 | 1 | % cleavage MMP-9 t = 60 min (MMP-9): 5%; % cleavage MMP-9 t = 120 min (MMP-9): 10%
6 | HSSKLQYFGKL ([2Abz]HSSKLQYFGKL[Tyr(3-NO2)]-NH2) [LNK061] | 0 | 0 | 0 | 0 | 0 | 0 | 0 | 0 | 0 | 0 | 23 | 23 | 74 | 74 | 100 | 100 | 0 | 0 | 0 | 0 | % cleavage MMP-9 t = 60 min (MMP-9): 0%; % cleavage MMP-9 t = 120 min (MMP-9): 0%

From patent US20240400614A1, “CLEAVABLE PEPTIDES AND METHODS OF USE THEREOF” (Bright Peak Therapeutics AG, priority 2023, published 2024)
